Reference: patent US20260116949A1

Target: endogenous TCRs of un-transduced activated human T cells (Untd)
Experiment: flow cytometry, FITC-anti-human TCR Vβ13.1 staining of un-transduced activated human T cells

## FITC anti-human TCR Vβ13.1 Antibody (EBIOSCIENCE, …X, THERMO FISHER …)
  % of cells positive for staining: 3.9%
